Measured values taken from the supplement of paper PMC10065799, “High-throughput profiling of sequence recognition by tyrosine kinases and SH2 domains using bacterial peptide display” (eLife, 2023).

molecular target: FGFR3 (UniProt P22607); assay: phosphorylation enrichment, bacterial display (enrichment ratio); higher = better substrate or ligand; peptides without Tyr show the background
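Also: 11-residue human phosphosite peptides and single-mutation variants displayed on the E. coli surface, counted by deep sequencing, each peptide's frequency after selection divided by its frequency in the unselected input library; frequency after pTyr selection over input frequency; kinase dosed for 20-30% of maximal phosphorylation in three min.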

Chain of FGFR3 (P22607 whole entry, looked up): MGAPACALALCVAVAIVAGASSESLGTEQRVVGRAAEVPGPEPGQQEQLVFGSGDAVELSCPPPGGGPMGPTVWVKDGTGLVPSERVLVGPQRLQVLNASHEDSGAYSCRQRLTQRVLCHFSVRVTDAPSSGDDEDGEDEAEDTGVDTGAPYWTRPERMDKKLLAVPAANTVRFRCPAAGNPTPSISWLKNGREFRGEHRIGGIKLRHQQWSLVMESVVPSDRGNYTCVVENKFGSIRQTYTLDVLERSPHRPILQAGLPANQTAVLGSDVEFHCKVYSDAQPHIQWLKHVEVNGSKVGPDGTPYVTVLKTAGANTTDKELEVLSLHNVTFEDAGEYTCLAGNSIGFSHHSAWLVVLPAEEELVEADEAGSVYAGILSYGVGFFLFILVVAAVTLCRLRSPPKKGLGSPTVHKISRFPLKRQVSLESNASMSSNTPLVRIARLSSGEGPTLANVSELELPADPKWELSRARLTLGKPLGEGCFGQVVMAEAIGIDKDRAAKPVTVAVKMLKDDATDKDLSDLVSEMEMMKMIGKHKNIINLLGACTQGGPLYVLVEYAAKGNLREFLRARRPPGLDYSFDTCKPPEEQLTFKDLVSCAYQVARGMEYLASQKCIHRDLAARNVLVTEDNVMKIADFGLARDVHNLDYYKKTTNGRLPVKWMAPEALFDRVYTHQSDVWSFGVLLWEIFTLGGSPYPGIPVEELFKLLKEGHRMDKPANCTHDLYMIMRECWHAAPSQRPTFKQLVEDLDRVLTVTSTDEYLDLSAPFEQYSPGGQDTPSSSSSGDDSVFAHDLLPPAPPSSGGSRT

First: LDLPGYCPLRE [CCDC116_Y291]
Second: CDDGKYVFVVT [RPS6KA3_Y488_Y483C_YF]
The phosphorylation enrichment of the first is higher: 1.36 for the first, 0.919 for the second.

Compared with RHFVFYFSFLL [PTEN_Y177_R173H_YF], ATATDYHTTSH [SLC4A1_Y46] is lower in phosphorylation enrichment: 0.553 for the first, 0.434 for the second.

First: SMAKYYASEIA [ACADSB_Y373]
Second: SSSAIYDNPDL [DCP1B_Y191_N195D]
The phosphorylation enrichment of the first is lower: 0.478 for the first, 0.651 for the second.

Compared with GARGRYIMGGP [TNK1_Y277_V278I], VNQSGYTLIRK [ATP6V0A2_Y688_R685Q] is higher in phosphorylation enrichment: 0.4 for the first, 0.465 for the second.

Going from MPLDQYSPSFP [FGFR1_Y776] to EDSEYYKAFEE [CASQ2_Y179], the phosphorylation enrichment falls from 0.79 to 0.742.

Compared with PSQRRYVFFFS [PTEN_Y174_YF], HFNLTYRILSF [MMP23B_Y95] is lower in phosphorylation enrichment: 1.24 for the first, 1.19 for the second.

First: LEIETCRRLLD [KRT12_Y429_Y429C]
Second: HYEDGYPGGSD [CTNND1_Y221]
The phosphorylation enrichment of the first is higher: 1.2 for the first, 0.945 for the second.

Going from LLREWYLPDPF [SIX3_Y225_Q227P_YF] to QEGPEYWDGNT [HLA-B_Y83_R86G], the phosphorylation enrichment rises from 1.36 to 1.56.

Going from DLAGRYYALKS [CKB_Y173] to PFRFIYMAVQH [PTPN11_Y515_Q510P_YF], the phosphorylation enrichment falls from 0.85 to 0.726.

Compared with KDAGDYKFKAK [LRIT3_Y326_C328Y_YF], RGGWAYVLHPT [TRMT61A_Y67_V66A] is higher in phosphorylation enrichment: 0.362 for the first, 0.698 for the second.

Compared with NFYEYYVDDPP [GCHFR_Y48], LNWIFYKDQTG [RS1_Y166_YF] is lower in phosphorylation enrichment: 4.76 for the first, 0.932 for the second.

Going from SASQEYHIVKK [PDZD2_Y557] to CRIELYRIVES [IGFBP1_Y181_V183I], the phosphorylation enrichment rises from 0.538 to 0.837.

First: THQNSYQPGRK [CEFIP_Y210]
Second: LVLIKYLPEWT [PSEN1_Y240_F237L]
The phosphorylation enrichment of the first is lower: 0.34 for the first, 1.08 for the second.

First: KALKQYRAGPS [DDX27_Y763]
Second: FASTGYGIAIQ [GRIN2B_Y762]
The phosphorylation enrichment of the first is lower: 0.368 for the first, 0.55 for the second.

First: CSSGGYEPRGR [FUS_Y239_R234C]
Second: RHPYFYAPELL [ALB_Y174]
The phosphorylation enrichment of the first is lower: 0.547 for the first, 10.8 for the second.

Going from LFEDRYLLGTS [ASS1_Y87_YF] to QTLTDYDIRFY [CSNK2A1_Y131], the phosphorylation enrichment falls from 2.45 to 0.84.

Sequence SMEGLYSSTQD [CLIC5_Y111] has a phosphorylation enrichment of 0.905.

test system: Fer (mouse); assay: as above

Compared with LDLPGYCPLRE [CCDC116_Y291], CDDGKYVFVVT [RPS6KA3_Y488_Y483C_YF] is lower in phosphorylation enrichment: 1.09 for the first, 0.683 for the second.

Compared with RHFVFYFSFLL [PTEN_Y177_R173H_YF], ATATDYHTTSH [SLC4A1_Y46] is higher in phosphorylation enrichment: 0.18 for the first, 0.328 for the second.

First: SMAKYYASEIA [ACADSB_Y373]
Second: SSSAIYDNPDL [DCP1B_Y191_N195D]
The phosphorylation enrichment of the first is lower: 0.495 for the first, 6.58 for the second.

Compared with GARGRYIMGGP [TNK1_Y277_V278I], VNQSGYTLIRK [ATP6V0A2_Y688_R685Q] is higher in phosphorylation enrichment: 0.4 for the first, 0.401 for the second.

Going from MPLDQYSPSFP [FGFR1_Y776] to EDSEYYKAFEE [CASQ2_Y179], the phosphorylation enrichment falls from 0.654 to 0.487.

Compared with PSQRRYVFFFS [PTEN_Y174_YF], HFNLTYRILSF [MMP23B_Y95] is lower in phosphorylation enrichment: 0.735 for the first, 0.726 for the second.

Going from LEIETCRRLLD [KRT12_Y429_Y429C] to HYEDGYPGGSD [CTNND1_Y221], the phosphorylation enrichment rises from 0.474 to 0.908.

Going from LLREWYLPDPF [SIX3_Y225_Q227P_YF] to QEGPEYWDGNT [HLA-B_Y83_R86G], the phosphorylation enrichment falls from 0.871 to 0.533.

First: DLAGRYYALKS [CKB_Y173]
Second: PFRFIYMAVQH [PTPN11_Y515_Q510P_YF]
The phosphorylation enrichment of the first is higher: 0.597 for the first, 0.563 for the second.

Compared with KDAGDYKFKAK [LRIT3_Y326_C328Y_YF], RGGWAYVLHPT [TRMT61A_Y67_V66A] is higher in phosphorylation enrichment: 0.278 for the first, 0.611 for the second.

Compared with NFYEYYVDDPP [GCHFR_Y48], LNWIFYKDQTG [RS1_Y166_YF] is lower in phosphorylation enrichment: 6.58 for the first, 0.54 for the second.

Compared with SASQEYHIVKK [PDZD2_Y557], CRIELYRIVES [IGFBP1_Y181_V183I] is higher in phosphorylation enrichment: 0.48 for the first, 0.579 for the second.

Compared with THQNSYQPGRK [CEFIP_Y210], LVLIKYLPEWT [PSEN1_Y240_F237L] is higher in phosphorylation enrichment: 0.303 for the first, 0.597 for the second.

Going from KALKQYRAGPS [DDX27_Y763] to FASTGYGIAIQ [GRIN2B_Y762], the phosphorylation enrichment falls from 0.389 to 0.375.

First: CSSGGYEPRGR [FUS_Y239_R234C]
Second: RHPYFYAPELL [ALB_Y174]
The phosphorylation enrichment of the first is lower: 0.475 for the first, 0.476 for the second.

Compared with LFEDRYLLGTS [ASS1_Y87_YF], QTLTDYDIRFY [CSNK2A1_Y131] is lower in phosphorylation enrichment: 1.12 for the first, 0.586 for the second.

Sequence SMEGLYSSTQD [CLIC5_Y111] has a phosphorylation enrichment of 3.64.

molecular target: Fes (UniProt P07332); assay: as above
Sequence (P07332 whole entry, looked up): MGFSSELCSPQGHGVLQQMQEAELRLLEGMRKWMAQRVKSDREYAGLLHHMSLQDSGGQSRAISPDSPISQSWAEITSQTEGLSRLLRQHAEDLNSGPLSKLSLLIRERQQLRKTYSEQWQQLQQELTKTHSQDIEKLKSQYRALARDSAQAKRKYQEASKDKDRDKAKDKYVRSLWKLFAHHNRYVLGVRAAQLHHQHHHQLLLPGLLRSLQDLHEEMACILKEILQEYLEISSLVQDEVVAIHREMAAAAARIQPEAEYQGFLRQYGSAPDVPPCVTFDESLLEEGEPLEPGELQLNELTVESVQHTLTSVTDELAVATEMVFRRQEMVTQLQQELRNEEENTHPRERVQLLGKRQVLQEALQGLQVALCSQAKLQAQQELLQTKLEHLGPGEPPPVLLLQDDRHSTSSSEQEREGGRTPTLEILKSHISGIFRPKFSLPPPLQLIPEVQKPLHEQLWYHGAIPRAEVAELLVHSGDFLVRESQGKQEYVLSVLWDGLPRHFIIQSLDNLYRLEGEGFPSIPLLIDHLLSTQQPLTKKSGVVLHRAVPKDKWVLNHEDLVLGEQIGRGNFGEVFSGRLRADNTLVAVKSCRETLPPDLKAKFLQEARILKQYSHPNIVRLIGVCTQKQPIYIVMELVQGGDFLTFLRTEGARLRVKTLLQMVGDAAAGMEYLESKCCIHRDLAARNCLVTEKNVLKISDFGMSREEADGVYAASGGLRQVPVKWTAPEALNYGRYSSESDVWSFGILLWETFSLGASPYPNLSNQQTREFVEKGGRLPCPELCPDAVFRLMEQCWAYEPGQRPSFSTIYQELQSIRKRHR

Going from LDLPGYCPLRE [CCDC116_Y291] to CDDGKYVFVVT [RPS6KA3_Y488_Y483C_YF], the phosphorylation enrichment falls from 1.97 to 1.43.

Compared with RHFVFYFSFLL [PTEN_Y177_R173H_YF], ATATDYHTTSH [SLC4A1_Y46] is lower in phosphorylation enrichment: 0.867 for the first, 0.482 for the second.

Compared with SMAKYYASEIA [ACADSB_Y373], SSSAIYDNPDL [DCP1B_Y191_N195D] is higher in phosphorylation enrichment: 0.701 for the first, 1.07 for the second.

First: GARGRYIMGGP [TNK1_Y277_V278I]
Second: VNQSGYTLIRK [ATP6V0A2_Y688_R685Q]
The phosphorylation enrichment of the first is lower: 0.547 for the first, 0.563 for the second.

Going from MPLDQYSPSFP [FGFR1_Y776] to EDSEYYKAFEE [CASQ2_Y179], the phosphorylation enrichment rises from 0.941 to 1.34.

Going from PSQRRYVFFFS [PTEN_Y174_YF] to HFNLTYRILSF [MMP23B_Y95], the phosphorylation enrichment rises from 1.77 to 1.8.

First: LEIETCRRLLD [KRT12_Y429_Y429C]
Second: HYEDGYPGGSD [CTNND1_Y221]
The phosphorylation enrichment of the first is higher: 1.33 for the first, 1.28 for the second.

Compared with LLREWYLPDPF [SIX3_Y225_Q227P_YF], QEGPEYWDGNT [HLA-B_Y83_R86G] is lower in phosphorylation enrichment: 2.2 for the first, 1.97 for the second.

Compared with DLAGRYYALKS [CKB_Y173], PFRFIYMAVQH [PTPN11_Y515_Q510P_YF] is higher in phosphorylation enrichment: 0.878 for the first, 1.01 for the second.

Compared with KDAGDYKFKAK [LRIT3_Y326_C328Y_YF], RGGWAYVLHPT [TRMT61A_Y67_V66A] is higher in phosphorylation enrichment: 0.613 for the first, 1.51 for the second.

Compared with NFYEYYVDDPP [GCHFR_Y48], LNWIFYKDQTG [RS1_Y166_YF] is higher in phosphorylation enrichment: 1.29 for the first, 1.72 for the second.

Compared with SASQEYHIVKK [PDZD2_Y557], CRIELYRIVES [IGFBP1_Y181_V183I] is higher in phosphorylation enrichment: 0.676 for the first, 1.49 for the second.

Compared with THQNSYQPGRK [CEFIP_Y210], LVLIKYLPEWT [PSEN1_Y240_F237L] is higher in phosphorylation enrichment: 0.436 for the first, 1.43 for the second.

Going from KALKQYRAGPS [DDX27_Y763] to FASTGYGIAIQ [GRIN2B_Y762], the phosphorylation enrichment rises from 0.553 to 0.92.

Compared with CSSGGYEPRGR [FUS_Y239_R234C], RHPYFYAPELL [ALB_Y174] is higher in phosphorylation enrichment: 0.861 for the first, 1.19 for the second.

Going from LFEDRYLLGTS [ASS1_Y87_YF] to QTLTDYDIRFY [CSNK2A1_Y131], the phosphorylation enrichment falls from 1.8 to 1.27.

SMEGLYSSTQD [CLIC5_Y111] showed a phosphorylation enrichment of 1.71.

molecular target: Fyn (UniProt P06241); assay: as above
Sequence (P06241 whole entry, looked up): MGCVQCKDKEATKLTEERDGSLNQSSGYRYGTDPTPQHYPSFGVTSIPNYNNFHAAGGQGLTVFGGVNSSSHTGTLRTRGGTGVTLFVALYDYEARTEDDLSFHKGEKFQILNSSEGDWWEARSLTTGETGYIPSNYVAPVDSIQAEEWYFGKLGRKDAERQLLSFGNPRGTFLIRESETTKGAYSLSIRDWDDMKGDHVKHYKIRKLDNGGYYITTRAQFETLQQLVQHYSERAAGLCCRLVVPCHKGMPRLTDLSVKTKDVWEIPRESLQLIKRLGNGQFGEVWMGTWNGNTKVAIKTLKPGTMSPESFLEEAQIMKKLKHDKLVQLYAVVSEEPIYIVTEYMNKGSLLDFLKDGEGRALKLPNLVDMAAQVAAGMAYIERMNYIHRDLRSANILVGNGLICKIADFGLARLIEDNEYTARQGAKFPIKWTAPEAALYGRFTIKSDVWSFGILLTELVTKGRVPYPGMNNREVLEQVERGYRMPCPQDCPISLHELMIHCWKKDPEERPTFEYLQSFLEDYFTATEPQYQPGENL

First: LDLPGYCPLRE [CCDC116_Y291]
Second: CDDGKYVFVVT [RPS6KA3_Y488_Y483C_YF]
The phosphorylation enrichment of the first is higher: 0.96 for the first, 0.444 for the second.

Going from RHFVFYFSFLL [PTEN_Y177_R173H_YF] to ATATDYHTTSH [SLC4A1_Y46], the phosphorylation enrichment falls from 0.538 to 0.294.

First: SMAKYYASEIA [ACADSB_Y373]
Second: SSSAIYDNPDL [DCP1B_Y191_N195D]
The phosphorylation enrichment of the first is lower: 0.404 for the first, 3.81 for the second.

Going from GARGRYIMGGP [TNK1_Y277_V278I] to VNQSGYTLIRK [ATP6V0A2_Y688_R685Q], the phosphorylation enrichment falls from 0.433 to 0.387.

Going from MPLDQYSPSFP [FGFR1_Y776] to EDSEYYKAFEE [CASQ2_Y179], the phosphorylation enrichment falls from 0.496 to 0.425.

Going from PSQRRYVFFFS [PTEN_Y174_YF] to HFNLTYRILSF [MMP23B_Y95], the phosphorylation enrichment falls from 0.721 to 0.391.

Compared with LEIETCRRLLD [KRT12_Y429_Y429C], HYEDGYPGGSD [CTNND1_Y221] is higher in phosphorylation enrichment: 0.635 for the first, 0.799 for the second.

Going from LLREWYLPDPF [SIX3_Y225_Q227P_YF] to QEGPEYWDGNT [HLA-B_Y83_R86G], the phosphorylation enrichment falls from 1.11 to 0.548.

Compared with DLAGRYYALKS [CKB_Y173], PFRFIYMAVQH [PTPN11_Y515_Q510P_YF] is higher in phosphorylation enrichment: 0.538 for the first, 0.732 for the second.

Going from KDAGDYKFKAK [LRIT3_Y326_C328Y_YF] to RGGWAYVLHPT [TRMT61A_Y67_V66A], the phosphorylation enrichment rises from 0.322 to 0.505.

Compared with NFYEYYVDDPP [GCHFR_Y48], LNWIFYKDQTG [RS1_Y166_YF] is lower in phosphorylation enrichment: 5.21 for the first, 0.48 for the second.

Compared with SASQEYHIVKK [PDZD2_Y557], CRIELYRIVES [IGFBP1_Y181_V183I] is higher in phosphorylation enrichment: 0.422 for the first, 0.455 for the second.

First: THQNSYQPGRK [CEFIP_Y210]
Second: LVLIKYLPEWT [PSEN1_Y240_F237L]
The phosphorylation enrichment of the first is lower: 0.36 for the first, 0.501 for the second.

Going from KALKQYRAGPS [DDX27_Y763] to FASTGYGIAIQ [GRIN2B_Y762], the phosphorylation enrichment rises from 0.43 to 0.499.

Compared with CSSGGYEPRGR [FUS_Y239_R234C], RHPYFYAPELL [ALB_Y174] is higher in phosphorylation enrichment: 0.411 for the first, 0.517 for the second.

Compared with LFEDRYLLGTS [ASS1_Y87_YF], QTLTDYDIRFY [CSNK2A1_Y131] is lower in phosphorylation enrichment: 1.29 for the first, 0.552 for the second.

In the case of SMEGLYSSTQD [CLIC5_Y111], the phosphorylation enrichment was 3.51.
